The text below walks through data of US20120177639A1 (Sanofi, published 2012).

To fix the notation:
B1: humanized anti-peptide Aβ antibody VH1VL1 (LP09027) (antibody, human IgG4 S228P, kappa, V domains shown)
VH: EVQLQQSGPEVVKPGVSVKISCKGSGYTFTDYAMHWVKQSPGKSLEWIGVISTKYGKTNYNPSFQGQATMTVDKSSSTAYMELASLKASDSAIYYCARGDDGYSWGQGTSVTVSS
VL: EIVMTQTPLSLPVSLGDRASISCRSGQSLVHSNGNTYLHWYLQKPGQSPKLLIYTVSNRFSGVPDRFSGSGSGSDFTLTISRVEAEDLGVYFCSQNTFVPWTFGGGTKLEIKR
notes: Humanized from murine antibody 13C3; Made in FreeStyle 293-F cells; hetero-tetramer of 150 kDa; also called 13C3-VH1VL1; Antibody 1 VH1VL1

Assay [1] has as its target B1. The experiment in a line: competitive ELISA, antibody 0.02 µg/ml pre-incubated with the peptide, free antibody read on coated Aβ1-42. As for the experimental part:
The antibody/antigen mixture is then deposited in each well and the microtitration plate is incubated for 1 h at room temperature. The free, uncomplexed antibody is determined according to the same ELISA protocol as described previously.

Assay [2] concerns the target T1, fibrils of IAPP (UniProt P10997 34-70).
T1 construct: Insoluble fibrils formed by 72 h at 37 °C; also called Islet Amyloid Polypeptide
T1 peptide (looked up): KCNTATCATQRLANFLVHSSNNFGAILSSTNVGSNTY
The experiment in a line: ELISA on coated fibrils (IAPP at 0.5 µg/ml).
Description: 50 μl of fibrils of Aβ1-42 at 1 μg/ml and IAPP at 0.5 μg/ml are deposited in each well of a microtitration plate. The ELISA protocol is applied using serial dilutions of the humanized antibody starting from 10 μg/ml.

With DAEFRHDSGYEVHHQK (peptide, UniProt P05067 672-687, looked up, range 1-16) [peptide Aβ1-16], the binding result in assay [1] was “no binding”.
For the molecule B1, the binding result in assay [2] is listed as “no binding”.
Turning to GSNKGAIIGLM (peptide, UniProt P05067 696-706, looked up, range 25-35) [peptide Aβ25-35], the binding result in assay [1] is listed as “no binding”.
